Data: article PMC4557296
Values belong to the substance of their own block, whether it stands above or below them.

Assays:
HP1α (I163E) (human) = HP1α (I163E) (human) (UniProt P45973); assay: MST; H3K9me3 1–14 peptide serially diluted (0.1–100 μM) and mixed 1:1 with a 300 nM stock of Atto532-labelled HP1α or HP1αcdm; 150 mM NaCl, 50 mM HEPES, 0.05% Tween, 1 mM DTT, pH 7.5; quadratic binding equation
[1] = biological target: HP1αcdm (covalently dimerized HP1α, Atto532-labelled) (human) (UniProt P45973); assay: as above
[2] = biological target: Atto532-labelled HP1α (human); assay: as above
[3] = biological target: H3K9me3 (100%) chromatin array (12 nucleosomes) (human) (UniProt P68431); assay: smTIRFM (single-molecule total internal reflection fluorescence microscopy); as a3, with 1000 nM unlabelled HP1α added to 1 nM Atto532-labelled HP1α
[4] = biological target: H3K9me3 (100%) chromatin array (12 nucleosomes) (human) (UniProt P68431); assay: smTIRFM (single-molecule total internal reflection fluorescence microscopy); as a3, with 250 nM unlabelled HP1α added to 1 nM Atto532-labelled HP1α
[5] = biological target: H3K9me3 (100%) chromatin array (12 nucleosomes) (human) (UniProt P68431); assay: smTIRFM (single-molecule total internal reflection fluorescence microscopy); chromatin arrays or mononucleosomes immobilised by biotin-neutravidin on PEG-passivated coverslips; 1 nM Atto532-labelled HP1α or 0.5 nM HP1αcdm in 50 mM HEPES, 130 mM KCl, 10% glycerol, 2 mM trolox, 0.005% tween-20, glucose and oxygen removal system; dwell-time histograms; apparent KD for a nucleosome in an array, calculated from the fast phase
[6] = biological target: H3K9me3 (100%) chromatin array (12 nucleosomes) (human) (UniProt P68431); assay: smTIRFM (single-molecule total internal reflection fluorescence microscopy); as a3, in the presence of 1 μM peptide P3
[7] = biological target: H3K9me3 (100%) chromatin array (12 nucleosomes) (human) (UniProt P68431); assay: smTIRFM (single-molecule total internal reflection fluorescence microscopy); as a3, with 50 nM unlabelled HP1α added to 1 nM Atto532-labelled HP1α
[8] = biological target: Atto532-labelled HP1α (human); assay: smTIRFM (fluorescence intensities of individual binding events); 1 nM Atto532-labelled HP1α on immobilised chromatin arrays; share of events with the intensity of a dimer
[9] = biological target: Atto532-labelled HP1α (human); assay: smTIRFM (fluorescence intensities of individual binding events); as a10, in the presence of 1 μM peptide P3
[10] = biological target: H3K9me3 (25%) chromatin array (12 nucleosomes) (human) (UniProt P68431); assay: smTIRFM (single-molecule total internal reflection fluorescence microscopy); chromatin arrays or mononucleosomes immobilised by biotin-neutravidin on PEG-passivated coverslips; 1 nM Atto532-labelled HP1α or 0.5 nM HP1αcdm in 50 mM HEPES, 130 mM KCl, 10% glycerol, 2 mM trolox, 0.005% tween-20, glucose and oxygen removal system; dwell-time histograms; apparent KD for a nucleosome in an array, calculated from the fast phase
[11] = biological target: H3K9me3 (100%) chromatin array (12 nucleosomes) (human) (UniProt P68431); assay: as above; remark: listed apart in the source
[12] = biological target: H3K9me3 (75%) chromatin array (12 nucleosomes) (human) (UniProt P68431); assay: as above
[13] = biological target: H3K9me3 mononucleosome (human) (UniProt P68431); assay: as above
[14] = biological target: H3K9me3 (50%) chromatin array (12 nucleosomes) (human) (UniProt P68431); assay: as above
[15] = biological target: H3K9me0 (unmodified) chromatin array (12 nucleosomes) (human) (UniProt P68431); assay: as above
[16] = biological target: H3K9me3 (100%) chromatin array (12 nucleosomes) (human) (UniProt P68431); assay: smTIRFM (single-molecule total internal reflection fluorescence microscopy); as a3, with the mutated peptide P4 added (concentration not given)
[17] = biological target: H3K9me3 (100%) chromatin array (12 nucleosomes) (human) (UniProt P68431); assay: smTIRFM (single-molecule total internal reflection fluorescence microscopy); chromatin arrays or mononucleosomes immobilised by biotin-neutravidin on PEG-passivated coverslips; 1 nM Atto532-labelled HP1α or 0.5 nM HP1αcdm in 50 mM HEPES, 130 mM KCl, 10% glycerol, 2 mM trolox, 0.005% tween-20, glucose and oxygen removal system; dwell-time histograms; apparent KD for a nucleosome in an array, calculated from the fast phase; remark: listed apart in the source
[18] = biological target: H3K9me3 (100%) chromatin array (12 nucleosomes) (human) (UniProt P68431); assay: as above; remark: listed apart in the source

Sequence of HP1α (W40A) (P45973 whole entry, stated change not applied): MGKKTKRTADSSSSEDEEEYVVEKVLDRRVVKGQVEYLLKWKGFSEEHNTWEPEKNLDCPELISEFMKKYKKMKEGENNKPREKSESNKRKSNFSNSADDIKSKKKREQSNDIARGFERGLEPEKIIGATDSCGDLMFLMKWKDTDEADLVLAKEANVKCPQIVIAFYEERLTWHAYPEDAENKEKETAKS

Substance: H3K9me3 1–14 peptide (from UniProt P68431 2-15)
Kd (HP1α (I163E) (human)): 9.4 µM
Kd [1]: 12.5 µM
Kd [2]: 5.36 µM

Substance: Atto532-labelled HP1α (natural protein)
Kd [3]: 3.11 µM
kon [3]: 2.92e+06 M⁻¹ s⁻¹
λon (apparent association time constant) [3]: 29.3 s
τoff,1 (fast phase of dissociation) [3]: 0.11 s
τoff,2 (slow phase of dissociation) [3]: 2.75 s
Kd [4]: 3.72 µM
kon [4]: 2.07e+06 M⁻¹ s⁻¹
λon (apparent association time constant) [4]: 43.3 s
τoff,1 (fast phase of dissociation) [4]: 0.13 s
τoff,2 (slow phase of dissociation) [4]: 3.93 s
τoff,2 (slow phase of dissociation) [5]: 2.3 s
Kd [6]: 0.38 µM
kon [6]: 7.94e+06 M⁻¹ s⁻¹
λon (apparent association time constant) [6]: 10.5 s
τoff,1 (fast phase of dissociation) [6]: 0.33 s
τoff,2 (slow phase of dissociation) [6]: 4.8 s
Kd [7]: 1.48 µM
kon [7]: 3.55e+06 M⁻¹ s⁻¹
λon (apparent association time constant) [7]: 23.8 s
τoff,1 (fast phase of dissociation) [7]: 0.19 s
τoff,2 (slow phase of dissociation) [7]: 3.97 s
percent of binding events attributed to dimeric protein [8]: 17%
percent dimeric HP1α [9]: 42%
Kd [10]: 6.06 µM
kon [10]: 1.1e+06 M⁻¹ s⁻¹
λon (apparent association time constant) [10]: 75.8 s
τoff,1 (fast phase of dissociation) [10]: 0.15 s
τoff,2 (slow phase of dissociation) [10]: 4.57 s
Kd [11]: 1.16 µM
kon [11]: 3.64e+06 M⁻¹ s⁻¹
λon (apparent association time constant) [11]: 22.9 s
τoff,1 (fast phase of dissociation) [11]: 0.25 s
τoff,2 (slow phase of dissociation) [11]: 2.26 s
Kd [12]: 3.23 µM
kon [12]: 1.63e+06 M⁻¹ s⁻¹
λon (apparent association time constant) [12]: 51 s
τoff,1 (fast phase of dissociation) [12]: 0.19 s
τoff,2 (slow phase of dissociation) [12]: 4.03 s
τoff,1 (fast phase of dissociation) [13]: 0.13 s
τoff,2 (slow phase of dissociation) [13]: 1.18 s
Kd [14]: 3.4 µM
kon [14]: 1.73e+06 M⁻¹ s⁻¹
λon (apparent association time constant) [14]: 48.2 s
τoff,1 (fast phase of dissociation) [14]: 0.17 s
τoff,2 (slow phase of dissociation) [14]: 4.09 s
τoff,1 (fast phase of dissociation) [15]: 0.08 s
τoff,2 (slow phase of dissociation) [15]: 3.7 s
Kd [16]: 0.84 µM
kon [16]: 4.25e+06 M⁻¹ s⁻¹
λon (apparent association time constant) [16]: 19.6 s
τoff,1 (fast phase of dissociation) [16]: 0.28 s
τoff,2 (slow phase of dissociation) [16]: 4.45 s
kon [17]: 3.58e+06 M⁻¹ s⁻¹

Substance: HP1α (W40A) (from UniProt P45973 1-191) (natural protein)
τoff,1 (fast phase of dissociation) [11]: 0.1 s
τoff,2 (slow phase of dissociation) [11]: 0.56 s

Results, then the substance that gave them:

Kd [18]: 0.14 µM
Kd [11]: 0.13 µM
kon [11]: 2.24e+07 M⁻¹ s⁻¹
λon (apparent association time constant) [11]: 7.45 s
τoff,1 (fast phase of dissociation) [11]: 0.33 s
τoff,2 (slow phase of dissociation) [11]: 3.4 s
Substance: HP1αcdm (covalently dimerized HP1α, Atto532-labelled) (from UniProt P45973 1-177)

λon (apparent association time constant) [11]: > 100 s
τoff,1 (fast phase of dissociation) [11]: 0.23 s
τoff,2 (slow phase of dissociation) [11]: 4.11 s
Substance: HP1α (I163E) (from UniProt P45973 1-191) (natural protein)
